Experimental data: the nanobody polyreactivity screen of Harvey et al. (2022)

Experiment: yeast display, Sf9 membrane polyspecificity reagent, FACS + sequencing; frameworks hold sequencing errors
Method in brief: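 A synthetic nanobody library was expressed on Saccharomyces cerevisiae BJ5465 by galactose induction for 36–48 hours. The library was stained for 1 hour at 4 °C with 10% biotinylated, detergent-solubilized Sf9 membrane reagent and enriched with streptavidin microbeads before FACS. Low and high (top ~1%) gates were set on anti-HA fluorescence for expression and streptavidin fluorescence for reagent binding, and each polyreactivity label reflects the gate of origin.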

Row | Sequence | polyreactivity (PSR sort gate)
1 | QVQLVETGGGLVQAGVSLRLSCAASGRIFEVNVMGWYRQAPGKERELVAAITTGGGSTYYADSVKGRFTISRDNAKNTVYLQMNSLKPEDTAVYYCATDYSSYLYDYYTGVGGYDYWGQGTQVTVSS | low polyreactivity
2 | QVQLVEAGGGLVQAGGSLRLSCAASGNTLYGNAMGWYLQAPGKERELVAAISWSGGSTSYADSVKGRFTISRDNAENTVYLQMNSLKPEDTAVYYCATQGFYKDYSRYDYWGQGTQVTVSS | low polyreactivity
3 | QVQLVESGGGLVQAGGSLRLSCAASGSTFWIYAMGWYRQAPGKERELVAAITLRSGSTYYADSVKGRFTISRDNAKNTVYLQMNSLKPEDTSVYYCATDSWGVDRPNYNYWGQGTQVTVSS | low polyreactivity
4 | QVQLVESGGGLVQAGGSLRLSCAASGIIFRYYAMGWYRQAPGKERELVAGITSNGGSTYYADSVKGRFTISRDNAKNTVYLQMNSLKPVDTAVYYCAAVSLYVWWALEYWGQGTQVTVSS | high polyreactivity
5 | QVQLVESGGGLVQAGGSLRLSCAASGSTFYVYAMGWYRQAPGKERELVATISSGGITNYADSVKGRFTISRDNAMNTVYLQMNSLKPEDTAVYYCNAKKAYYGRGMNYWGQGTQVTVSS | low polyreactivity
6 | QVQLVESGGGLVQAGRSLRLSCAASGSIFTYYAMGWYRQGPGQERELVAAINWSGGGTYYADSLKGRFTISRDNAKINVYLQMNSLKPEDTAVYYCNALRKTYRLDYWGQGTQVTLSS | high polyreactivity
7 | QVQLVESGGGLVQAGGSLRLSCAASGLIFSGSAMGWYRQAPGKERELVAAITWSGGSTYYADSVKGRFTISRDNAKNSVYLQMNSQKPEDTAVYYCNAKFYQISRYGYWGQGTQVTVSS | high polyreactivity
8 | QVQLVESGGGLVQAGGSLRLSCAASGITFTDNTMGWYRQAPGKERELVAAISRSGTSTYYADSVKGRFTISRDNAKNTVYLQMNSLKPEDTAVYYCAALSYVPSPYYYWGQGTQVTVSS | high polyreactivity
9 | QVQLVESGGGLVQAGGSLRLSCAASGLTFGYYAMGWYRQAPGKERELVAAISSSGGRTYYADSVKGRFTISRDNAKNTVYLQMNSLKPEDSAVYYCAKSRYATQTDYNYWGQGTQVTVSS | high polyreactivity
10 | QVQLVESGGGLVQAGGSLRLSCAASGRIFLSNGMGWYRQAPGKERELVAGITTGGGDSTYYADSVKGRFTISRDNAKNTVYLQMNSLKPEDTAVYYCNADSVYAGFDYWGQGTQVTVSS | low polyreactivity
11 | QVQLVESGGGLVQAGGSLRLSCAASGRTFLFNGMGWYRQAPGKERELVASITRGGSTYADSVKGRFTISRDNAKNTGYVQMNSLNPEDTAVYDCNAYFWFPYNYWGQGTQVTVSS | high polyreactivity
12 | QVQLVESGGGLVQAGGSLRFSCAASGSIFSVYAMGWYRQAPGKEREWVAAITSGTYTYADSVKGRFTISRDNAKNSVYLQMNSLKAEDTAVYYCAAESGSPGYYYWGQGTQVTVST | low polyreactivity
13 | QVQLVESGGGLVQAGGSLRLSCAASGSIFEGNAMGWSRQAPGKERELVAAITGRGGSTYYADSVKGRFTISRDNAKNTVYLQMNSLKPEDTAVYYCAARVRRLSSIIYYYWGQGTQVTVSS | high polyreactivity
14 | QVQLVESGGGLVQAGGSLRLSCAASGSTFARYAMGWYRQAPGKERELVAAISGGGGSTYYADSVKGRFTISRDNAKNTVYLQMNSLKPEDTAVYYCAKLLARGNRYDSWGQGTQVTVSS | high polyreactivity
15 | QVQLVESGGGLVQAGGSLRLSCAPSVRTFQYYAMGWYRPAPGKERELVAAINQGGGRTYYADSVKGRFTISRDTAKNTVYLQMNSLKPEDTAVYYCAADGLSKFDYWGQGTQVTVSS | low polyreactivity
16 | QVQLVESGGGLVQAGGSLRLSCAASGLILGYYAMGWYRQAPGKERELVATIRRGASTYYADSVKGRFTISRDNAKNTVYLQMNSLKPEDTAVYYCAADTERSLAGGMYYWGEGTQVTVSS | low polyreactivity
17 | QVQLVESGGGLVQAGGSLRLSCAASGSILGTYAMGWYRQAPGKERDLVAAISSSGRTSYADSVKGRFTISRDNAKNTVYLQMNSLKPEDTAVYFCNKVTSYYVFYTPYYSWGQGTQVTVSS | low polyreactivity
18 | QVQLVESGGGLVQAGGSLRLSCAASGITFPGYAMGSYRQAPGKERELVAVIRKSGTSTYYADSVKGRFTISRDNAKNTVYLQMNSLKPEDTAVYYCAAGGPSTLDDYWGQGTQVTVSS | low polyreactivity
19 | QVQLVESGGGLVQARGSLRLSCPASGSIFSLNAMGWYRQAPGKERELVASISRGGSTNYADSVKGRFTISRDNAKNTVYLQMNSLKPEDTAVYYCAAYWYYYTKSQSSYRFDYWGQGTQVTVSS | low polyreactivity
20 | QVQLVESGGGLVQAGGSLRLSCAASGRTFKYNAMGWYRQAPGKERELVAVISYDGSTYYADSVKGRFTISRDNAKNTVYLQMNSLKPEDTAVYYCAARYLDVRPYYYWGQGTQVTVSS | high polyreactivity
21 | QVQLQESGGGLEQAGGSLRLSCAASGNISSWYPMGWYRQAPGKEREFVATIAPVATTNYADSVKGRFTISRDYAKITVYLQMNSLKPEDTAVNYCAAGPDNNDFYSYWGQGTQVTVSS | low polyreactivity
22 | QVQLVESGGGLVQAGGSLRLSCAASGRIFTYNAMGWYRQAPGKERELDATITWRGGGTYYADSVKGRFTISRDNAKNTVYLQMNSLKPEDTAVYYCNRRLPGDGQYGYRRYDYWGQGTQVTVSS | low polyreactivity

Row | Sequence | polyreactivity (PSR sort gate)
23 | QVQLVESGGGLVQAGGSLRLSCAASGLTFQEYAMGWYRQAPGKERELVAAISWSGGSTYYADSVKGRFTISRDNAKNTVYLQMNSLKPEDTAVYYCAAEAYEEFITGWYAYDYWGQGTQVTVSS | high polyreactivity
24 | QVQLVESGGGLVQAGGSLRLSCADSGSTIFGNAMGWYRQAPGKERELVAAISYSGDSTYYADSVKGRFTISRDNAMNTVYLQMNSLKPEDTAVYYCAAGFVIKYDFWGQGTQVTVSS | low polyreactivity
25 | QVQHVDSGGRLVQAGGRLRLSCAASGRIITYYARGWNRQAPGKERELVAAISGRGGGTYYADSVKGRFTISRDNAKNTVYLQMNSLKPADTAVYYCNAYYSRLRYDYWGQGTQVTVSS | high polyreactivity
26 | QVQLVESGGGLVQAGGSLRLSCAASGFIFRYYTMGWYRQAPGKERELVATITSGGSTYYADSVKGRFTISRDNAKNTVYLQMNSLKPEDTAVYYCAKVRDVLWRFNYWGQGTQVTVSS | high polyreactivity
27 | QVQLVESGGGLVQAGGTLSLSCAATGRNFYCYAMGWYRQAHGKERELVAAINWSGGTTYYADSVKGRFTISRDNAKNTVYLQMNSLKPEDTAVYYSAADRILEMGYWGQGTQVTVSS | low polyreactivity
28 | QVQLVESGGGLVQAGGSLRLICAASGSTFDANAMGWYRQAPGKERELVAAITSNGGSTYYADSVKARFTISRDNAKNTVYLQMNSLKPEDTAVYYCATEQHTVQDYDFWGQGTQVTVSS | low polyreactivity
29 | QVQLVESGGGLVQAGGSLRLSCAASGRIFYPYAMGWYRQAPGKERELVAAITWSGGSTYYADSVKGRFTISRDNAKNTVYLQMNSLKPEDTAVYYCAKDHSYGAYYYWGQGTQVTVSS | high polyreactivity
30 | QVQLVESGGGLVQAGGSLRLSCAASGSIFSLYAMGWYRQAPGKERELVATISKSGGSTYYADSVKGRFTISRDNAKNTVYLQMNSLKPEDTAVYYCAARLTYTGGQGAYDYWGQGTQVTVSS | high polyreactivity
31 | QVQLVESGGGLVQAGGSLRLSCAASGFTFGTYAMGWYRQAPGKERELVARITSGGRTNYADSVKGRFTISRDNAKNTVYLQMNSLKPEDTAVFYCNAVNGYYWGSRFDYWGQGTQVTVSS | high polyreactivity
32 | QVQLVESGGGLVQAGGSLRLSCAASGSIFGFNTMGWYRQAPGKERELVATINWSGGSTYYADSVKGRFTISRDNAKNTVYLQMNSLKPEDTAVYYCNAGPFSGRLFTTYASRGRYDYWGQGTQVTVSS | low polyreactivity
33 | QVQLVDSGGGLVQAGGSLRLSCAASGRTIGFYAMGWYRQAPGKERELVAAINRSGDSTYYADSVKGRFTISRDNAKNTVYLQMNSLKPEDTAVYYCAASYGYRYEYWGQGTQVTVSS | high polyreactivity
34 | QVQLVESGGGLVQAGGSLRLSCAASGRTFYRYAMGWYRQAPGKERELVAAITWSGGSTYYADSVKGRFTTSRDNAKNTVYFQMNSLKPEDTAVYYCARRLYPYRPTAYDYWGQGTQVTVSS | low polyreactivity
35 | QVQLVESGGGLVQAGGSLRIICAASGRTFSYYAMGWYRQAPGKERELVAAITAGGNTYYADSVKGRFTISRDNAKNTVYLQMNSLKAEDTAVYYCAATYYWAWGGVYHSEFDYWGQGTQETVSS | low polyreactivity
36 | QVQLVESGGGLVQAGGSLRLSCVASGLTQPYAMGWYRQAPGKERELVAAISSSGGRTSYADSVKGRFTISRDNAKNTVYLQMNSLKPEDTAVYYCNVDLGVNGDYWGQGTQVTVSS | low polyreactivity
37 | QVQLVESGGGLVQAGGSLRLSCAASGRIFFNYAMGWYIQAPGKERELVARITGSGGRTYYADSVKGRFTISRDNAKNTVYLQMNSLKPEDTAVYYCNKVPGYKYDSWGQGTQVTVSS | high polyreactivity
38 | QVQLVESGGGLVQAGGSLRLSCAASGSIFGANAMGWYRQAPGKERELVAAISSNGDDTYADSVMGRFTISRDNAKNTVYLQMNSLKPEDTAVYYCAARAERVREYNYWGQGTQVTVSS | low polyreactivity
39 | QVQLVESGGGLVQAGGSLRLTCAASGRTFSTYVMGWYRQAPGKEREFVAAISTGGGSTYYADSVKGRFTISRDNAKNTVYLQMNSLKPEDTAVYYCAAKRKIRGYGPYEFWGQGTQVTVSS | high polyreactivity
40 | QVQLVESGGGLVQAGGSLRLSCAASGSIFYWNAMGWYRQAPGKERELVAAINYSGDSTYYADSVKGRFTISRDNAKNTVYLQMNSLKPEDTEVYYCNFDYWGQGTQVTVSS | low polyreactivity
41 | QVQLVESGGGLVQAGGSLRLSCAASGFIFYRNTMGWYRQAPGKERELVATISRRGGSTYYADSVKGRFTISRDNAKHTVYLQMNSLKPEDTAVYYCNADQEYSRPRYGMDYWGQGTQVTVSS | high polyreactivity
42 | QVQLVESGGGLVQAGGSLRLSCAASGFIFASNAMGWYRQAPGKERELVASISRSGGNTYYADSVKGRFTISRDNAKNTVYLQMNSLKPEDTAVYYCAAEYIFHYYDIFDYWGQGTQVTVSS | high polyreactivity
43 | QVQLVESGGGLVQAGGSLRLSCAASGRIFYYYAMGWYRQAPGKERELVAAITWSGGSTYYADSVKGRFTISRDNAKNTVYLQMNSLKPEDTAVYYCAAEWAYWDEWSGDYYLLGYWGQGTQVTVSS | high polyreactivity
